From patent publication US20210095018A1 (BIOLEGEND, published 2021)

Target: T1, human Tetraspanin 33 (TSPAN33) (human, UniProt Q86UF1 1-283)
T1 sequence: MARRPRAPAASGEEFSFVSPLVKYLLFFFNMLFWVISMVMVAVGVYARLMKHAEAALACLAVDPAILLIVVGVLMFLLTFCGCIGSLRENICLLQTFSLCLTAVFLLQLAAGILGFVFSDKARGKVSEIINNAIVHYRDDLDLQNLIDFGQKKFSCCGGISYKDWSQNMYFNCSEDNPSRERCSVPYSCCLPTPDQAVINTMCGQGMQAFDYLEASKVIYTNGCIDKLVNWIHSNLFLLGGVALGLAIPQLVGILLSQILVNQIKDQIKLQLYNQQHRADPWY
Experiment: flow cytometry on human PBMCs activated with CD40L and IL-4; detection with anti-mouse IgG PE
Description: Human peripheral blood mononuclear cells (PBMCs) were isolated in aseptic conditions through a gradient of Ficoll-Paque PLUS (GE Healthcare) according manufacturer instructions. The PBMCs were counted and adjusted in complete RPMI-1640 (10% fetal bovine serum, […] Penicillin, and 1 mg/ml Streptomycin) to a cell density of 1×10⁶ cells/mL. Cells were activated by adding CD40L (TNFSF5; 1 μg/mL) and recombinant human IL-4 (100 U/mL) to the culture. The cells were incubated overnight at 37° C. with 5% CO₂.
The next day the cells were washed with Biolegend's Cell Staining Buffer, and 1×10⁶ cells were stained for 15 minutes in the dark with anti-human CD20-APC and purified anti-human TSPAN33 or purified mouse IgG2b, k isotype control, in a volume of 100 μL. Cells were washed twice with 3 mL of Cell Staining Buffer and then stained for 15 minutes in the dark with anti-mouse IgG PE, in a volume of 100 μL. Then the cells were washed twice with 3 mL of Cell Staining Buffer and analyzed on a flow cytometer. 7-AAD Viability Staining Solution was used to exclude dead cells from analysis.

binding result: binds
B1: AB1, mouse anti-TSPAN33 monoclonal antibody (antibody, V domains shown)
VH: EVKLVESGGGLVQPGGSLSLSCAASGFTFTDYYMTWVRQPPGKALEWLVFIRNKANGYTTEYSASVKGRFTISRDNSQSILYLQMNALRAEDSATYYCARYLQTGNFDYWGQGTTLTVSS
VL: EIQMIQTTSSLTASLGDRVTISCRASQDISNFLNWYQQKPDGTIKLLIYFTSRLHSGVPSRFSGSGSGTDYSLTISNLEQEDIATYFCQQGYTVPPTFGGGTKLEIK
notes: Murine monoclonal antibody from a hybridoma; also called AB (clone) Number 1
